Residue numbers refer to the chain shown, from its start.
B1: EGPa Wild-type: Pyrococcus abyssi-derived endoglucanase, SEQ ID NO: 25, parent endoglucanase (protein)
chain: MEIKLFCVFIVFIILFSPFVIALSYPDVNYTAENGIIFVQNVTTGEKKPLYLHGVSWFGFELKDHVVYGLDKRNWKDILKDVKRLGFNAIRLPFCSESIRPDTRPSPERINYELNPDLKNLTSLEIMEKIIEYANSIGLYILLDYHRIGCEEIEPLWYTENYSEEQYIKDWIFLAKRFGKYPNVIGADIKNEPHGEAGWGTGDERDFRLFAEKVGREILKVAPHWLIFVEGTQYTHVPNIDEIIEKKGWWTFWGENLMGVKDYPVRLPRGKVVYSPHVYGPSVYMMDYFKSPDFPNNMPIIWETHFGYLTDLNYTLVIGEWGGNYEGLDKVWQDAFVKWLIKKKIYNFFYWCLNPESGDTGGIFLDDWKTVNWEKMRVIYRLIKAANPEFEEPLYIILKTNATTSILGVGERIRIYWYTNGKVIDSNFAHSSEGEMNITVTKSMTLYIIVKKGNQTLRKELKLYVIGGNYGSNISTTQLVTPKKGGERISTSLKLAISLLFILLFVWYLLREKH
modifications: Pyrococcus abyssi EGPa
B2: EGPa Mutant: mutant EGPa, SEQ ID NO: 26; residue corresponding to 273rd tryptophan substituted with alanine (protein)
chain: B1 chain with W253A
modifications: Pyrococcus abyssi EGPa W253A
notes: residue corresponding to 273rd tryptophan substituted with alanine
B3: EGAc Wild-type: Acidthermus cellulolyticus-derived endoglucanase, SEQ ID NO: 31, parent endoglucanase (protein)
chain: MPRALRRVPGSRVMLRVGVVVAVLALVAALANLAVPRPARAAGGGYWHTSGREILDANNVPVRIAGINWFGFETCNYVVHGLWSRDYRSMLDQIKSLGYNTIRLPYSDDILKPGTMPNSINFYQMNQDLQGLTSLQVMDKIVAYAGQIGLRIILDRHRPDCSGQSALWYTSSVSEATWISDLQALAQRYKGNPTVVGFDLHNEPHDPACWGCGDPSIDWRLAAERAGNAVLSVNPNLLIFVEGVQSYNGDSYWWGGNLQGAGQYPVVLNVPNRLVYSAHDYATSVYPQTWFSDPTFPNNMPGIWNKNWGYLFNQNIAPVWLGEFGTTLQSTTDQTWLKTLVQYLRPTAQYGADSFQWTFWSWNPDSGDTGGILKDDWQTVDTVKDGYLAPIKSSIFDPVGASASPSSQPSPSVSPSPSPSPSASRTPTPTPTPTASPTPTLTPTATPTPTASPTPSPTAASGARCTASYQVNSDWGNGFTVTVAVTNSGSVATKTWTVSWTFGGNQTITNSWNAAVTQNGQSVTARNMSYNNVIQPGQNTTFGFQASYTGSNAAPTVACAAS
modifications: Acidthermus cellulolyticus EGAc
B4: EGAc Mutant: mutant EGAc, SEQ ID NO: 32; residue corresponding to 273rd tryptophan substituted with alanine (protein)
chain: B3 chain with W254A
modifications: Acidthermus cellulolyticus EGAc W254A
notes: as for B2

Assays:
[1] = Activity to degrade phosphoric acid swollen cellulose; type: biochemical; conditions: 1% phosphoric acid swollen cellulose, pH 5.2, enzyme 0.5 μM, 1 hour, 50° C.; glucose generated by each parent endoglucanase = 100%
Protocol: The term “identity” refers to the percentage of amino acid residues identical to and amino acid residues analogous to the other amino acid residues in all the amino acid residues overlapped when an optimum alignment is performed by introducing gaps or no gaps into two amino acid sequences and then aligning the two amino acid sequences. Such an identity can be found using a method known by persons skilled in the art, sequence analysis software, and the like (a known algorithm such as BLAST or FASTA). The term “endoglucanase activity” is as defined above and can be determined by adding an enzyme solution to a substrate solution of phosphoric acid swollen cellulose that has been dissolved in 50 mM acetic acid-sodium acetate buffer (pH 5.2) or the like, performing 1 hour of reaction at 30° C. to 85° C., stopping the reaction by changing the pH if necessary, and then determining the concentration of glucose in the reaction solution using a glucose determination kit, for example.
The mutants obtained in Comparative Example 1 were compared in terms of activity by a technique similar to that in Example 3. The concentration (g/L) of glucose generated by each parent endoglucanase under the above reaction conditions was determined to be 100%.

[2] = Inhibition experiment with vanillin: degradation of phosphoric acid swollen cellulose; type: biochemical; conditions: enzyme 0.5 μM, 1 hour, 50° C., parent at 0 mM = 100%
Protocol: (§6) This substance was diluted using buffer and water to obtain a 2 wt % mixture so that the final concentration of sodium acetate was 50 mM (pH 5.2). This was designated as phosphoric acid swollen cellulose and used for the following examples.
The activity of the wild-type and the mutant endoglucanases to degrade phosphoric acid swollen cellulose in the presence of vanillin was measured. 1% phosphoric acid swollen cellulose/50 mM acetate buffer (pH 5.2) was used as a substrate. Vanillin (Sigma Aldrich) was added at final concentrations of 0, 5, 10, and 15 mM. The enzymes prepared in Reference Example 1 and Example 2 were added at a final concentration of 0.5 μM, followed by 1 hour of enzymatic reaction at 50° C.

[3] = Inhibition experiment with ferulic acid: degradation of phosphoric acid swollen cellulose; type: biochemical; conditions: enzyme 0.5 μM, 1 hour, 50° C., parent at 0 mM = 100%
Protocol: as §6
The activity of the wild-type and the mutant endoglucanases to degrade phosphoric acid swollen cellulose was measured in the presence of ferulic acid. 1% phosphoric acid swollen cellulose/50 mM acetate buffer (pH 5.2) was used as a substrate. Ferulic acid (Sigma Aldrich) was added at final concentrations of 0, 5, 10, and 15 mM. The enzymes prepared in Reference Example 1 and Example 2 were each added at a final concentration of 0.5 μM, followed by 1 hour of enzymatic reaction at 50° C.

[4] = Saccharification of lignocellulose 1 with Celluclast and endoglucanase; type: biochemical, Rice straw; conditions: 5 wt % Lignocellulose 1, pH 5.2, 50° C., 24 hours; 1.0 mg/mL cellulase + 0.1 mg/mL endoglucanase
Protocol: (§1) Rice straw was used as cellulose. The cellulose was added to a small reactor (Taiatsu Techno Corporation, TVS-N2 (30 ml)), and then cooled with liquid nitrogen. An ammonia gas was fed to the reactor, thereby completely immersing the sample in the liquid ammonia. The reactor was closed using its lid, and then left to stand at room temperature for 15 minutes. Subsequently, treatment was performed for 1 hour in an oil bath at 150° C. After treatment, the reactor was removed from the oil bath, an ammonia gas leak was immediately performed within a draft chamber. The reactor was vacuumed using a vacuum pump to 10 Pa for drying. The resultant was used as lignocellulose 1 in the following examples.
(§2) The changes in the amount of glucose generated when the enzyme composition had been caused to act on lignocellulose substrates were compared. The substrates were prepared by suspending 5 wt % lignocelluloses (1 to 3) (prepared in Reference Example 3) in 50 mM acetate buffer (pH5.2). Reactions were performed at 50° C. for 24 hours. The concentrations of the generated glucose were measured after adequate sampling. As a filamentous bacterium-derived cellulase mixture, commercially available Trichoderma reesei-derived cellulase (Celluclast, Sigma) was used. As endoglucanases, the mutant endoglucanases prepared in Example 2 and the wild-type endoglucanases prepared in Reference Example 1 were separately used. The following quantities of enzymes were added: 1.0 mg/mL cellulase, and 0.1 mg/mL endoglucanase (in an amount one tenth that of the cellulase).

[5] = Saccharification of lignocellulose 2 with Celluclast and endoglucanase; type: biochemical, Rice straw; conditions: 5 wt % Lignocellulose 2, pH 5.2, 50° C., 24 hours; 1.0 mg/mL cellulase + 0.1 mg/mL endoglucanase
Protocol: (§3) Rice straw was used as cellulose. Cellulose was immersed in a 1% aqueous sulfuric acid solution, and then autoclaved for 30 minutes at 150° C. (Nitto Koatsu Co. Ltd.). After treatment, the resultant was subjected to solid-liquid separation into an aqueous sulfuric acid solution (hereinafter, referred to as “dilute-sulfuric-acid-treated solution”) and cellulose treated with sulfuric acid. Next, the cellulose treated with sulfuric acid was mixed and agitated with the dilute-sulfuric-acid-treated solution so that the solid content concentration was 10 wt %. Then the mixture was adjusted to around pH 5 using sodium hydroxide. The resultant was used as lignocellulose 2 for the following examples.
as §2

[6] = Saccharification of lignocellulose 3 with Celluclast and endoglucanase; type: biochemical, Rice straw; conditions: 5 wt % Lignocellulose 3, pH 5.2, 50° C., 24 hours; 1.0 mg/mL cellulase + 0.1 mg/mL endoglucanase
Protocol: (§4) Rice straw was used as cellulose. The cellulose was immersed in water, and then autoclaved with agitation at 180° C. for 20 minutes (Nitto Koatsu Co. Ltd.). Pressure at this time was 10 MPa. After treatment, a solution component (hereinafter, referred to as “hydrothermally treated solution”) and the treated biomass component were subjected to solid-liquid separation by centrifugation (3000 G). The thus treated biomass component was used as lignocellulose 3 for the following examples.
as §2

[7] = Saccharification of lignocellulose 1 with Trichoderma reesei culture solution and endoglucanase; type: biochemical, Rice straw; conditions: Lignocellulose 1, 24 hours; cellulase 1.0 mg/mL + endoglucanase 0.1 mg/mL + β-glucosidase (Novozyme 188) 0.01 mg/mL
Protocol: as §1, §2
(§5) Lignocelluloses (1-3) prepared in Reference Example 3 were used as substrates. The Trichoderma reesei culture solution prepared in Reference Example 4 was used as a filamentous bacterium-derived cellulase mixture. Lignocelluloses (1-3) were hydrolyzed in a manner similar to that in Example 7, except for the quantities of the enzymes added: cellulase (1.0 mg/mL); endoglucanase (0.1 mg/mL (in an amount one tenth that of the cellulase); and β-glucosidase (Novozyme 188) (0.01 mg/mL (in an amount one hundredth that of the cellulase).

[8] = Saccharification of lignocellulose 2 with Trichoderma reesei culture solution and endoglucanase; type: biochemical, Rice straw; conditions: Lignocellulose 2, 24 hours; cellulase 1.0 mg/mL + endoglucanase 0.1 mg/mL + β-glucosidase (Novozyme 188) 0.01 mg/mL
Protocol: as §3, §2, §5

[9] = Saccharification of lignocellulose 3 with Trichoderma reesei culture solution and endoglucanase; type: biochemical, Rice straw; conditions: Lignocellulose 3, 24 hours; cellulase 1.0 mg/mL + endoglucanase 0.1 mg/mL + β-glucosidase (Novozyme 188) 0.01 mg/mL
Protocol: as §4, §2, §5

| Molecule | Relative activity [1] | Relative activity to degrade phosphoric acid swollen cellulose ([2]; vanillin 0 mM) | Relative activity to degrade phosphoric acid swollen cellulose ([2]; vanillin 5 mM) | Relative activity to degrade phosphoric acid swollen cellulose ([2]; vanillin 10 mM) | Relative activity to degrade phosphoric acid swollen cellulose ([2]; vanillin 15 mM) | Relative activity to degrade phosphoric acid swollen cellulose ([3]; ferulic acid 0 mM) | Relative activity to degrade phosphoric acid swollen cellulose ([3]; ferulic acid 5 mM) | Relative activity to degrade phosphoric acid swollen cellulose ([3]; ferulic acid 10 mM) | Relative activity to degrade phosphoric acid swollen cellulose ([3]; ferulic acid 15 mM) | Concentration of glucose generated, Celluclast + Wild-type [4] | Concentration of glucose generated, Celluclast + Wild-type [5] | Concentration of glucose generated, Celluclast + Wild-type [6] | Concentration of glucose generated, Culture solution + Wild-type [7] | Concentration of glucose generated, Culture solution + Wild-type [8] | Concentration of glucose generated, Culture solution + Wild-type [9] | Concentration of glucose generated, Celluclast + Mutant [4] | Concentration of glucose generated, Celluclast + Mutant [5] | Concentration of glucose generated, Celluclast + Mutant [6] | Concentration of glucose generated, Culture solution + Mutant [7] | Concentration of glucose generated, Culture solution + Mutant [8] | also measured |
| --- | --- | --- | --- | --- | --- | --- | --- | --- | --- | --- | --- | --- | --- | --- | --- | --- | --- | --- | --- | --- | --- |
| B1 | 100% | 100% | 40% | 40% | 40% | 100% | 60% | 50% | 50% | 12 g/L | 12 g/L | 11 g/L | 9 g/L | 9 g/L | 8 g/L |  |  |  |  |  |  |
| B2 | 100% | 100% | 90% | 90% | 90% | 100% | 95% | 90% | 90% |  |  |  |  |  |  | 14 g/L | 16 g/L | 15 g/L | 11 g/L | 13 g/L | Concentration of glucose generated, Culture solution + Mutant [9]: 12 g/L |
| B3 | 100% | 100% | 50% | 45% | 40% | 100% | 65% | 60% | 55% | 11 g/L | 11 g/L | 11 g/L | 8 g/L | 8 g/L | 8 g/L |  |  |  |  |  |  |
| B4 | 100% | 100% | 100% | 95% | 95% | 100% | 100% | 100% | 95% |  |  |  |  |  |  | 16 g/L | 14 g/L | 14 g/L | 13 g/L | 11 g/L | Concentration of glucose generated, Culture solution + Mutant [9]: 11 g/L |
